This is an account of results in patent US20220017863.

The target of data set [1] is succinate dehydrogenase subunit alpha (SDHA), Q8K2B3.
Data set [2] deals with glyceraldehyde-3-phosphate dehydrogenase (GAPDH), P16858.
Data set [3] concerns the target T1, aconitase 2 (ACO2), Q99KI0.
T1 chain: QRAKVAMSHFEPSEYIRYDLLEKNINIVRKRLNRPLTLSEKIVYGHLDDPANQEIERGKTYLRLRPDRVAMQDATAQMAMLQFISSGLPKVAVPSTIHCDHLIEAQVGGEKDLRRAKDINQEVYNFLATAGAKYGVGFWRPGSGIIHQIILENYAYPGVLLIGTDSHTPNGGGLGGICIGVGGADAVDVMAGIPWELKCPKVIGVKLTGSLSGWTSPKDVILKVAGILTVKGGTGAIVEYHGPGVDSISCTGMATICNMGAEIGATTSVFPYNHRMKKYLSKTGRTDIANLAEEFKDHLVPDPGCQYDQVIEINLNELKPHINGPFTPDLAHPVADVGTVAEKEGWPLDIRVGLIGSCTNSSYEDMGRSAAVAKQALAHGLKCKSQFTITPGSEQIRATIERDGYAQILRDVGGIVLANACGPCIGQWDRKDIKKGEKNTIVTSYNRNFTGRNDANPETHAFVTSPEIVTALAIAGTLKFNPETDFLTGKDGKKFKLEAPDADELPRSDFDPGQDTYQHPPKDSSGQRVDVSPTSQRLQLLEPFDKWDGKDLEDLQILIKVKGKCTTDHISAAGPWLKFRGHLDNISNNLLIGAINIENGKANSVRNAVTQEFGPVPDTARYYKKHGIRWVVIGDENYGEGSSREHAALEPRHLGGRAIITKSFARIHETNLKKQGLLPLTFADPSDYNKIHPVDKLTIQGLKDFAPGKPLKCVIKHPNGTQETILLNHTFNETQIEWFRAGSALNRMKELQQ

For a further data set, the target named is T2, enolase 1 (ENO1), P17182.
T2 chain: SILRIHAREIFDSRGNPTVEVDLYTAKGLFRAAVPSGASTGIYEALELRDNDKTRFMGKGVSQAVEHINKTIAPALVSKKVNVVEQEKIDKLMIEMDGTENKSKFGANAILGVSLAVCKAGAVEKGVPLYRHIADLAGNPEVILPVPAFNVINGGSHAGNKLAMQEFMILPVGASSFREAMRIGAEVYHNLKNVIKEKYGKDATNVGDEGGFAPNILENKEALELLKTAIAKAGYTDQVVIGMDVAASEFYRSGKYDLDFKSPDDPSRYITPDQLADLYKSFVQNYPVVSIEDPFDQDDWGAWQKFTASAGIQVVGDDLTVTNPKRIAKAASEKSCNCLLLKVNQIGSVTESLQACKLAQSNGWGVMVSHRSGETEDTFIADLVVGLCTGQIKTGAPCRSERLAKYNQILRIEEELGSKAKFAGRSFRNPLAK

Data set [4] deals with succinate-CoA ligase alpha subunit (SUCLG1), Q9WUM5.
Sequence of succinate-CoA ligase alpha subunit (SUCLG1), Q9WUM5 (Q9WUM5 35-346): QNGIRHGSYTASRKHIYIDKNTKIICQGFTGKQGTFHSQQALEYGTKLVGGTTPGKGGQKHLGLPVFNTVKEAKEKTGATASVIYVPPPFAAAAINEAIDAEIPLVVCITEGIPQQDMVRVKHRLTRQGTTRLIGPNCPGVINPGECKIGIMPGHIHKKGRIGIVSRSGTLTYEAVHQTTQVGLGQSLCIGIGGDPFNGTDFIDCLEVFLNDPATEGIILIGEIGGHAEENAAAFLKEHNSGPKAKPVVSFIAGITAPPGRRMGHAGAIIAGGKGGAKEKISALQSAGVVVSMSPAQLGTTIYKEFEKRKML
Data set [5] deals with T3, glutaminase (GLS), D3Z7P3.
T3 chain: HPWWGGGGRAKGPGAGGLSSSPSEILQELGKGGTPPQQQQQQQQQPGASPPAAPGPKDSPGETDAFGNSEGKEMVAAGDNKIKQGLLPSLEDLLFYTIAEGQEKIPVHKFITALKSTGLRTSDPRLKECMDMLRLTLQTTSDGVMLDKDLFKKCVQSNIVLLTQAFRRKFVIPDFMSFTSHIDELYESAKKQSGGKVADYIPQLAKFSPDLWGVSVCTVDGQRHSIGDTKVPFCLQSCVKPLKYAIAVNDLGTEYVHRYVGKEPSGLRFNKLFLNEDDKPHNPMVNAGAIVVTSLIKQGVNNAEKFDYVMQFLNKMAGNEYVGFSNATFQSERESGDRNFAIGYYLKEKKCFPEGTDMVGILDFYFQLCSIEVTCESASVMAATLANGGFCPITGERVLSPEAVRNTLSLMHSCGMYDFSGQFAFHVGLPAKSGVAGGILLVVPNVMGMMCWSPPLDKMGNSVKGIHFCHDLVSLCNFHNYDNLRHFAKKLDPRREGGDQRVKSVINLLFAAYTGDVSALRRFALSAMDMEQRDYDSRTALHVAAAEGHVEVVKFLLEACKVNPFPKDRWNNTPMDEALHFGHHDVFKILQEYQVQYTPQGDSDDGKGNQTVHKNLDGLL

The target of data set [6] is T4, Hydroxyacyl-CoA Dehydrogenase Trifunctional Multienzyme Complex Subunit Beta (HADHB), Q99JY0.
T4 chain: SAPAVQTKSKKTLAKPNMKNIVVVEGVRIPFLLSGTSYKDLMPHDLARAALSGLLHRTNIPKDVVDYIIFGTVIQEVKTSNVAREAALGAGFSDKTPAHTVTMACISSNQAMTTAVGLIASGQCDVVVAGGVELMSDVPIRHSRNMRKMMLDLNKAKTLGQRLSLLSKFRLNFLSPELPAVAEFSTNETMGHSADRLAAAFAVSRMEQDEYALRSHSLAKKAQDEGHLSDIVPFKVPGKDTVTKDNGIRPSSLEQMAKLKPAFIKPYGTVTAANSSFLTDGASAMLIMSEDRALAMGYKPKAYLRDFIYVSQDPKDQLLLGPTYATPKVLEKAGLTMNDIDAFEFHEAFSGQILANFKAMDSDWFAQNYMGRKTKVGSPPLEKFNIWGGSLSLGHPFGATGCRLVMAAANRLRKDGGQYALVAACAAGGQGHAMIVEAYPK

Data set [7] concerns the target T5, malate dehydrogenase, P08249.
T5 chain: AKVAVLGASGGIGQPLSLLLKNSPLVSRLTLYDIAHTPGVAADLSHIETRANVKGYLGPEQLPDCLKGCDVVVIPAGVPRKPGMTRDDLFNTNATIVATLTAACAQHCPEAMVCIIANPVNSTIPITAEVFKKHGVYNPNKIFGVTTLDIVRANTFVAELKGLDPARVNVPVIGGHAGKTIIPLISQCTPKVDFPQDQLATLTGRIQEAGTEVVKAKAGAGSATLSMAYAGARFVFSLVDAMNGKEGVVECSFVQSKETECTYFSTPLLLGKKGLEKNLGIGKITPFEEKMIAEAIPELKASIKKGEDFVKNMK

Data set [8] deals with T6, phosphoglycerate kinase 1 (PGK1), P09411.
T6 chain: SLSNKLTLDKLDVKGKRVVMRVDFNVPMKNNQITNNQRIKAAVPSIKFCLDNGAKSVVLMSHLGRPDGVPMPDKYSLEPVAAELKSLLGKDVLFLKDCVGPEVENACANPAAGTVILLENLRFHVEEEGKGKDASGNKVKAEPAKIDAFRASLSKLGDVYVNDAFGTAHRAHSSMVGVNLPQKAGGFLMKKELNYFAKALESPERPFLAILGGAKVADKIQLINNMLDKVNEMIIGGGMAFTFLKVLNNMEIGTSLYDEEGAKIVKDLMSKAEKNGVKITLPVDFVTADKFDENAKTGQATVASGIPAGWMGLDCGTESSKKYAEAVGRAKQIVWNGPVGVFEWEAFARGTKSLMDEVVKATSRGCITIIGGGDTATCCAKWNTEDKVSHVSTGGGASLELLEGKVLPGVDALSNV

Data set [9] deals with T7, aldolase A (ALDOA), P05064.
T7 chain: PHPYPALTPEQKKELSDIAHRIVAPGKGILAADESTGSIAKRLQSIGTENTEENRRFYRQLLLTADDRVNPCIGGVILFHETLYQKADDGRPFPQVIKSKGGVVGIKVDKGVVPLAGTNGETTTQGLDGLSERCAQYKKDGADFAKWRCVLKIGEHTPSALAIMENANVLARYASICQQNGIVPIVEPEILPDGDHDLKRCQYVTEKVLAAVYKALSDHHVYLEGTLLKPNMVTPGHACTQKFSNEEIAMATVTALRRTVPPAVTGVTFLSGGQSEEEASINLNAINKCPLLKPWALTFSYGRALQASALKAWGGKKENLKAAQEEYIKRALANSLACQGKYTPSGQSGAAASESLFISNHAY

In data set [10] the target is T8, isocitrate dehydrogenase, P54071.
T8 chain: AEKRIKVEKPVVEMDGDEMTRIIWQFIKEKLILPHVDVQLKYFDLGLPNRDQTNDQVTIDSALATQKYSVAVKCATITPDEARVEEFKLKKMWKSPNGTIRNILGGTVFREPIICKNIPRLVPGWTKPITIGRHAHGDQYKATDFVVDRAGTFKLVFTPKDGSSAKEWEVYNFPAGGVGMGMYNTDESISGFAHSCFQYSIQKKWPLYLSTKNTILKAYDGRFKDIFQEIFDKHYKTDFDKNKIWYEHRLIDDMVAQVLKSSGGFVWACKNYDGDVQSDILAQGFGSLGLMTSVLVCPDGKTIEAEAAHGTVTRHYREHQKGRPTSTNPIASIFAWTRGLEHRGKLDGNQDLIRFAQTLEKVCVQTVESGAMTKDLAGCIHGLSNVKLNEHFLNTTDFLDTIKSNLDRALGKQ

Data set [11] addresses glutamate dehydrogenase (GDH), P26443.
Data set [12] addresses pyruvate kinase M (PKM), P52480.
Data set [13] addresses lactate dehydrogenase (LDH), P06151.

Sequence of glutamate dehydrogenase (GDH), P26443 (P26443 54-558): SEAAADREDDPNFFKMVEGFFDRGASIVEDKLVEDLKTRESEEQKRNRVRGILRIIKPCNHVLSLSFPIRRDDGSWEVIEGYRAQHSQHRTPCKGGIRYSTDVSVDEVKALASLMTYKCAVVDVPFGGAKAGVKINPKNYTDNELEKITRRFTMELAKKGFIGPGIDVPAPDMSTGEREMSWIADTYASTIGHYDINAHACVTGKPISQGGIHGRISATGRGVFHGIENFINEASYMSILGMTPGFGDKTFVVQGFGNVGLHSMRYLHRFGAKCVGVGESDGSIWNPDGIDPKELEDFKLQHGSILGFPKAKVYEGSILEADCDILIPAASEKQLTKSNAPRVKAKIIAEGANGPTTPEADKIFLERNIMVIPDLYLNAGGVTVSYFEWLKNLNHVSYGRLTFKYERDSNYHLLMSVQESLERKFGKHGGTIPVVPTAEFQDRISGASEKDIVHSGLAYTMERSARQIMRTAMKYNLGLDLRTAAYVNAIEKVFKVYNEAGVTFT
Sequence of pyruvate kinase M (PKM), P52480 (P52480 whole entry): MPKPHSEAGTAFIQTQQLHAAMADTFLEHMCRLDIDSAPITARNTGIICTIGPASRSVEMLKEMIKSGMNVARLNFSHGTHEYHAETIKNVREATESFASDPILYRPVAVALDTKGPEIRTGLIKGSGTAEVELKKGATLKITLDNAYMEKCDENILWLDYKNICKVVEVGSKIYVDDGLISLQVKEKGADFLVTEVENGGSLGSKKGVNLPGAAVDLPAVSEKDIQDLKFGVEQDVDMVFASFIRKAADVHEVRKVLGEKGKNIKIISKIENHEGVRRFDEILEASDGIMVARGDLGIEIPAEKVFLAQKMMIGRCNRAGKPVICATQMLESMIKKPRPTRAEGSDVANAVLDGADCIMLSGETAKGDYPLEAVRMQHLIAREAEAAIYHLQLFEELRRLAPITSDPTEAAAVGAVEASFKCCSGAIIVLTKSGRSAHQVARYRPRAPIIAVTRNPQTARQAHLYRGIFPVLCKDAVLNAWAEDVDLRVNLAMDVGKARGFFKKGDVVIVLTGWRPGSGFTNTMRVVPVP
Sequence of glyceraldehyde-3-phosphate dehydrogenase (GAPDH), P16858 (P16858 whole entry): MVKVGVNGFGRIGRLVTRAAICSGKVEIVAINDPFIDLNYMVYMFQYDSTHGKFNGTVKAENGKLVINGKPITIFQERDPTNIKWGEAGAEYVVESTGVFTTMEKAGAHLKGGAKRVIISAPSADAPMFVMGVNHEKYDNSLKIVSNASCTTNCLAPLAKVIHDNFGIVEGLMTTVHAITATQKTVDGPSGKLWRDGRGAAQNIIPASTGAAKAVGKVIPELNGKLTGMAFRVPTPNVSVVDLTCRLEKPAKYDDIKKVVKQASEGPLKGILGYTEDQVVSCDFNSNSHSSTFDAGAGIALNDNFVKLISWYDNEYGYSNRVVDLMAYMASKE
Sequence of succinate dehydrogenase subunit alpha (SDHA), Q8K2B3 (Q8K2B3 43-664): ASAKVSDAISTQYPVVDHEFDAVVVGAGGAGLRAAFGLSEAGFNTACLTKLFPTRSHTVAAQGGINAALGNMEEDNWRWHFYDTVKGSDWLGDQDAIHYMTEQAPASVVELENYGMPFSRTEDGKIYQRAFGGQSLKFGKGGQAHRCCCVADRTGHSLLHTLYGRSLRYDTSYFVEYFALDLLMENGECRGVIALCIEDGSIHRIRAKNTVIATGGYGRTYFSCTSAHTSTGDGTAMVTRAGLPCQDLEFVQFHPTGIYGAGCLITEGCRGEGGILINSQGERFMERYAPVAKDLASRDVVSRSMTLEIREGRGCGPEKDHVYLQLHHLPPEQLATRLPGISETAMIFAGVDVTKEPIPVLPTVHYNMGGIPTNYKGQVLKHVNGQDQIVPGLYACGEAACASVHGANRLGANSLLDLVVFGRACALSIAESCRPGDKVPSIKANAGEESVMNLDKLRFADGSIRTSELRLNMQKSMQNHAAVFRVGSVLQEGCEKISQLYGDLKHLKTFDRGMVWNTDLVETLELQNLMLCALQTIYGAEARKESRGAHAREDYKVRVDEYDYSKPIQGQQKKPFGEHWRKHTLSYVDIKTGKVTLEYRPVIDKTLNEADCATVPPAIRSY

B1: Sirt2 (protein)
chain: AEPDPSDPLETQAGKVQEAQDSDSDTEGGATGGEAEMDFLRNLFTQTLGLGSQKERLLDELTLEGVTRYMQSERCRKVICLVGAGISTSAGIPDFRSPSTGLYANLEKYHLPYPEAIFEISYFKKHPEPFFALAKELYPGQFKPTICHYFIRLLKEKGLLLRCYTQNIDTLERVAGLEPQDLVEAHGTFYTSHCVNTSCRKEYTMGWMKEKIFSEATPRCEQCQSVVKPDIVFFGENLPSRFFSCMQSDFSKVDLLIIMGTSLQVQPFASLISKAPLATPRLLINKEKTGQTDPFLGMMMGLGGGMDFDSKKAYRDVAWLGDCDQGCLALADLLGWKKELEDLVRREHANIDAQSGSQAPNPSTTISPGKSPPPAKEAARTKEKEEQQ
Regarding B1, the “acetylated peptide intensity (acetyl-lysine IP, LC-MS/MS, EIC)” value (“acetylated peptide intensity” below) in data set [1] is on record as “peptide ISQLYGDLKHLK (SEQ ID NO:10) from Succinate Dehydrogenase Subunit Alpha ... acetylation site K544 ... increased acetylation intensity in Sirt2^-/- sample versus WT”; in [2], “peptide WGEAGAEYVVESTGVFTTMEKAGAHLK (SEQ ID NO:5) from glyceraldehyde-3-phosphate dehydrogenase ... acetylation site K105 ... increased acetylation intensity in Sirt2^-/- sample versus WT”; in [3] it was “peptide NFTGRNDANPETHAFVTSPEIVTALAIAGTLKFNPETDFLTGKDGK (SEQ ID NO:7) from aconitase 2 ... acetylation site K506 ... increased acetylation intensity in Sirt2^-/- sample versus WT”; with enolase 1 (ENO1), P17182 it was “peptide SCNCLLLKVNQIGSVTESLQACK (SEQ ID NO:2) from enolase 1 ... acetylation site K343 ... increased acetylation intensity in Sirt2^-/- sample versus WT”; in data set [4] it was “peptide SSDEAYAIAKK (SEQ ID NO:9) from Succinyl-CoA Ligase ... acetylation site K125 ... increased acetylation intensity in Sirt2^-/- sample versus WT”; in data set [5] it was “peptide FITALKSTG (SEQ ID NO:13) from GLS ... acetylation site K169 ... increased acetylation intensity in Sirt2^-/- sample versus WT”. Further, the “acetylated peptide intensity” value is on record as “peptide GQQQVFKGLNDK (SEQ ID NO:12) from HADHB ... acetylation site K406 ... increased acetylation intensity in Sirt2^-/- sample versus WT” in data set [6]; “peptide ETECTYFSTPLLLGKK (SEQ ID NO:11) from malate dehydrogenase ... acetylation site K296 ... increased acetylation intensity in Sirt2^-/- sample versus WT” in data set [7]; “peptide SVVLMSHLGRPDGVPMPDKYSLEPVAAELK (SEQ ID NO:4) from phosphoglycerate kinase 1 ... acetylation site K75 ... increased acetylation intensity in Sirt2^-/- sample versus WT” in [8]; “peptide GILAADESTGSIAKR (SEQ ID NO:1) from aldolase A ... acetylation site K42 ... increased acetylation intensity in Sirt2^-/- sample versus WT” in data set [9]; “peptide NILGGTVFREPIICKNIPR (SEQ ID NO:8) from isocitrate dehydrogenase ... acetylation site K155 ... increased acetylation intensity in Sirt2^-/- sample versus WT” in data set [10]; “peptide LTFKYER (SEQ ID NO:14) from GDH ... acetylation site K457 ... increased acetylation intensity in Sirt2^-/- sample versus WT” in data set [11]. In addition, the entries for the “acetylated peptide intensity” value in [12] and in [13] were “peptide CCSGAIIVLTKSGR (SEQ ID NO:6) from pyruvate kinase M ... acetylation site K433 ... increased acetylation intensity in Sirt2^-/- sample versus WT” and “peptide FIIPNIVKYSPHCK (SEQ ID NO:3) from lactate dehydrogenase ... acetylation site K126 ... increased acetylation intensity in Sirt2^-/- sample versus WT”, respectively.
